Laboratory results published in patent publication US20160108098A1 (GlaxoSmithKline, published 2016).
Where no end group is shown, it is not given here.

T1: human Neuropeptide Y receptor type 2 (human, UniProt P49146 1-381)
T1 sequence (looked up): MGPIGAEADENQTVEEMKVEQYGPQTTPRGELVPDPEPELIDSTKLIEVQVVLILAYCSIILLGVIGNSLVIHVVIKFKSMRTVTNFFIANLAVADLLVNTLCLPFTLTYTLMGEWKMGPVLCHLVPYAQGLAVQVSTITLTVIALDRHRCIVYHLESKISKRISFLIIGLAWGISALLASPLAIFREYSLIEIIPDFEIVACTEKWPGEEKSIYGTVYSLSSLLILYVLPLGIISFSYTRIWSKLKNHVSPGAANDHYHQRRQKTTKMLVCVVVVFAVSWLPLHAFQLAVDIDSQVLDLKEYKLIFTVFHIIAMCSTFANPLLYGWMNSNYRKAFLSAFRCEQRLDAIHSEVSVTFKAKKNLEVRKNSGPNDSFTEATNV


Molecular target: T1, human Neuropeptide Y receptor type 2
Test: cell-based or functional assay

In order of falling “hNPY Y2 pEC50” value:
1. PKPEAPGKDASPEELNRYYASLRKYLNWLTRQRY-NH2 [Example 2]  9.8 pEC50
2. PKPEAPGKDASPEELNRYYASLRKYLNWVTRQRY-NH2 [Example 31]  9.8 pEC50
3. PKPEHPGKDASPEEWNRYYASLRKYLNWVTRQRY-NH2 [Example 25]  9.6 pEC50

Molecular target: T1, human Neuropeptide Y receptor type 2
Test: cell-based or functional assay
Remark: another data set of the same source

In order of falling “hNPY Y2 pEC50” value:
1. IKPPYPGCDASPEEQNKYYASLRAYWNLVTRQRY-NH2 [Peptide 8]  9.3 pEC50
2. PKPEAPGEDASPKEWNRYYASLRKYLNWVTRQRY-NH2 [Peptide 3]  9.2 pEC50
3. PKPVAPGCDASPAELNRQYSDLRNYWNLVTRQRY-NH2 [Peptide 15]  8.9 pEC50
4. PKPEAPLSKQLEEEAVRYYASLRHYLNLVTRQRY-NH2 [Peptide 21]  8.7 pEC50
5. IKPEAPLSKQLEEEAVRYYASLRHYLNLVTRQRY-NH2 [Peptide 2]  8.6 pEC50
6. PKPEAPGCDASPEEWNRYYASLRKYLNWVTRQHY-NH2 [Peptide 14]  8.2 pEC50
7. PKPEAPGCDASPEEWNRYYASLRKYLNWVTRQNY-NH2 [Peptide 1]  7.9 pEC50
